The record followed here is PMC5467235, “Variation in auxin sensing guides AUX/IAA transcriptional repressor ubiquitylation and destruction” (Nature Communications, 2017).

B1: GST-IAA6 [Arabidopsis thaliana] / ASK1-TIR1 protein complex [Arabidopsis thaliana] (parent)
chain 1: MAKEGLALEITELRLGLPGDNYSEISVCGSSKKKKRVLSDMMTSSALDTENENSVVSSVEDESLPVVKSQAVGWPPVCSYRRKKNNEEASKAIGYVKVSMDGVPYMRKIDLGSSNSYINLVTVLENLFGCLGIGVAKEGKKCEYIIIYEDKDRDWMLVGDVPWQMFKESCKRLRIVKRSDATGFGLQQD
chain 2: MQKRIALSFPEEVLEHVFSFIQLDKDRNSVSLVCKSWYEIERWCRRKVFIGNCYAVSPATVIRRFPKVRSVELKGKPHFADFNLVPDGWGGYVYPWIEAMSSSYTWLEEIRLKRMVVTDDCLELIAKSFKNFKVLVLSSCEGFSTDGLAAIAATCRNLKELDLRESDVDDVSGHWLSHFPDTYTSLVSLNISCLASEVSFSALERLVTRCPNLKSLKLNRAVPLEKLATLLQRAPQLEELGTGGYTAEVRPDVYSGLSVALSGCKELRCLSGFWDAVPAYLPAVYSVCSRLTTLNLSYATVQSYDLVKLLCQCPKLQRLWVLDYIEDAGLEVLASTCKDLRELRVFPSEPFVMEPNVALTEQGLVSVSMGCPKLESVLYFCRQMTNAALITIARNRPNMTRFRLCIIEPKAPDYLTLEPLDIGFGAIVEHCKDLRRLSLSGLLTDKVFEYIGTYAKKMEMLSVAFAGDSDLGMHHVLSGCDSLRKLEIRDCPFGDKALLANASKLETMRSLWMSSCSVSFGACKLLGQKMPKLNVEVIDERGAPDSRPESCPVERVFIYRTVAGPRFDMPGFVWNMDQDSTMRFSRQIITTNGL
chain 3: MSAKKIVLKSSDGESFEVEEAVALESQTIAHMVEDDCVDNGVPLPNVTSKILAKVIEYCKRHVEAAASKAEAVEGAATSDDDLKAWDADFMKIDQATLFELILAANYLNIKNLLDLTCQTVADMIKGKTPEEIRTTFNIKNDFTPEEEEEVRRENQWAFE

Variants of B1 are the subject of this assay. As to the kind of experiment: one-point saturation binding assay with [3H]IAA (radioligand binding). The settings on record: 200 nM [3H]IAA, read off a plot.
On to chain 1 MAKEGLALEITELRLGLPGDNYSEISVCGSSKKKKRVLSDMMTSSALDTENENSVVSSVEDESLPVVKSQAVGWPPVRSYRRKKNNEEASKAIGYVKVSMDGVPYMRKIDLGSSNSYINLVTVLENLFGCLGIGVAKEGKKCEYIIIYEDKDRDWMLVGDVPWQMFKESCKRLRIVKRSDATGFGLQQD [chain 1 C78R], for which the response stood at 3100 c.p.m.
